Source: patent publication US20160303225A1 (HENRY M JACKSON FOUNDATION FOR THE ADVANCEMENT OF MILITARY …, published 2016)

Biological target: T1, modified HCMV gB (homotrimeric complex of modified human cytomegalovirus glycoprotein B) (human cytomegalovirus (HCMV), UniProt F5HB53 25-750)
T1 construct: It runs as a 360 kDa homotrimer under native or partially reducing conditions and as a 120 kDa monomer under fully reducing or denaturing conditions; also called trimeric HCMV gB; HCMV trimeric gB
Assay: purified proteins mixed 1:1 (molecular ratio) and incubated at room temperature for 2 hours; Western blot under non-reducing conditions

B1: HCMV gH/gL fusion protein (other)
chain: DATVSVAPTVAEKVPAECPELTRRCLLGEVFQGDKYESWLRPLVNVTRRDGPLSQLIRYRPVTPEAANSVLLDDAFLDTLALLYNNPDQLRALLTLLSSDTAPRWMTVMRGYSECGDGSPAVYTCVDDLCRGYDLTRLSYGRSIFTEHVLGFELVPPSLFNVVVAIRNEATRTNRAVRLPVSTAAAPEGITLFYGLYNAVKEFCLRHQLDPPLLRHLDKYYAGLPPELKQTRVNLPAHSRYGPQAVDARGGGGSGGGGSGGGGSYGAEAISEPLDKAFHLLLNTYGRPIRFLRENTTQCTYNSSLRNSTVVRENAISFNFFQSYNQYYVFHMPRCLFAGPLAEQFLNQVDLTETLERYQQRLNTYALVSKDLASYRSFSQQLKAQDSLGEQPTTVPPPIDLSIPHVWMPPQTTPHGWTESHTTSGLHRPHFNQTCILFDGHDLLFSTVTPCLHQGFYLIDELRYVKITLTEDFFVVTVSIDDDTPMLLIFGHLPRVLFKAPYQRDNFILRQTEKHELLVLVKKDQLNRHSYLKDPDFLDAALDFNYLDLSALLRNSFHRYAVDVLKSGRCQMLDRRTVEMAFAYALALFAAARQEEAGAQVSVPRALDRQAALLQIQEFMITCLSQTPPRTTLLLYPTAVDLAKRALWTPNQITDITSLVRLVYILSKQNQQHLIPQWALRQIADFALKLHKTHLASFLSAFARQELYLMGSLVHSMLVHTTERREIFIVETGLCSLAELSHFTQLLAHPHHEYLSDLYTPCSSSGRRDHSLERLTRLFPDATVPTTVPAALSILSTMQPSTLETFPDLFCLPLGESFSALTVSEHVSYVVTNQYLIKGISYPVSTTVVGQSLIITQTDSQTKCELTRNMHTTHSITAALNISLENCAFCQSALLEYDDTQGVINIMYMHDSDDVLFALDPYNEVVVSSPRTHYLMLLKNGTVLEVTDVVVDATDSRLHHHHHH
notes: It was expressed in CHO DG44 cells; also called monomeric gH/gL; gH/gL heterodimer
binding result: binds
